# Data from PMC8631645, “Avidity observed between a bivalent inhibitor and an enzyme monomer with a single active site” (PLoS ONE, 2021).
# T1: mesotrypsin (human, UniProt P35030 81-304)
# T1 construct: also called recombinant human mesotrypsin
# T1 sequence (looked up): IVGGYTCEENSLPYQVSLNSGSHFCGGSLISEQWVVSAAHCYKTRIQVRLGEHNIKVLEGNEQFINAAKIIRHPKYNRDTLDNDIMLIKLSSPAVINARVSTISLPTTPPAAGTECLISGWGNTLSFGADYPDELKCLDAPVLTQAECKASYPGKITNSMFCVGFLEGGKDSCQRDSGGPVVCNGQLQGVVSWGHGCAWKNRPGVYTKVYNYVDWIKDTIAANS
# B1: dimeric amyloid precursor protein inhibitor (APPI homodimer, two APPI units in tandem joined by a GGGGSx3 linker) (other)
# chain: EVCSEQAETGPCRAMISRWYFDVTEGKCAPFFYGGCGGNRNNFDTEEYCMAVCGSAMGGGGSGGGGSGGGGSEVCSEQAETGPCRAMISRWYFDVTEGKCAPFFYGGCGGNRNNFDTEEYCMAVCGSAM
# modifications: three disulfides per Kunitz unit. Limits from the printed primers (text says 3L33 residues 4-55 = 290-341). GGGGSx3 linker kept between units. Possible restriction-site residues at the junction and …
# What was measured:
# [1] = target: T1, mesotrypsin; assay: enzyme inhibition kinetics; mesotrypsin 0.25 nM, Z-GPR-pNA 5-250 uM, APPI monomer 0-400 nM or dimer inhibitor units 0-96 nM, 37 C, 100 mM Tris, 1 mM CaCl2, pH 8.0; global fit to the classic competitive inhibition equation; for the dimer an apparent constant of a single inhibitory unit; conditions: both partners purified
# [2] = target: bovine trypsin (bovine); assay: enzyme activity titration; pre-titrated bovine trypsin (9 uL, 30 uM) mixed with six dilutions of APPI monomer or dimer; residual activity on 100 uM L-BAPA, 100 mM Tris, 5 mM CaCl2, pH 8.0, 37 C; compared with concentration by absorbance at 280 nm; conditions: both partners purified
binder,measurement,setting,value
B1,Ki,[1],36.1 nM
same,stoichiometry N,[2],2 trypsin per APPI dimer
